Source: PMC3014015, “Structural Insights into Substrate Specificity in Variants of N-Acetylneuraminic Acid Lyase Produced by Directed Evolution” (Journal of Molecular Biology, 2010)

Legend:
[1] = target: T1, N-acetylneuraminic acid lyase (Escherichia coli, UniProt P0A6L4, E192N); assay: coupled cleavage assay of purified enzyme; crystal soaking gave only the cleavage product pyruvate; type: biochemical
T1 construct: gene nanA; hexa-His-tagged protein
T1 sequence (P0A6L4 2-297 E192N): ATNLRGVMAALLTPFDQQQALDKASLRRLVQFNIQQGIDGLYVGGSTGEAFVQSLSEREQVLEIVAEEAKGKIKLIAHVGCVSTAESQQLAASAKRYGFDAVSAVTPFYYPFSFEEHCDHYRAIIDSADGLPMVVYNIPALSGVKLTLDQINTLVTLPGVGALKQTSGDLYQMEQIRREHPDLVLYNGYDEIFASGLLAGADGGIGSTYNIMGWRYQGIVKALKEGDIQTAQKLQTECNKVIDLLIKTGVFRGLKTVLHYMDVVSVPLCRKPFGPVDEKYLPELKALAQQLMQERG

[2] = target: E192N variant of Escherichia coli N-acetylneuraminic acid lyase (Escherichia coli); assay: crystal structure; space group P2_(1), four crystallographically independent subunits (tetramer); crystals grown at 4 °C by sitting drop in 100 mM Tris-HCl pH 8.0-8.30, 200 mM NaCl, 18% (wt/vol) PEG 3350; some crystals soaked with 100 mM pyruvate and 70 mM THB
[3] = target: T2, N-acetylneuraminic acid lyase (Escherichia coli, UniProt P0A6L4, E192Q); assay: steady-state kinetics (Km), coupled lactate dehydrogenase/NADH assay; type: biochemical; conditions: read-out: Neu5Ac / Km
T2 construct: gene nanA; hexa-His-tagged protein
T2 sequence (P0A6L4 2-297 E192Q): T1 sequence (P0A6L4 2-297 E192N)

[4] = tested on: T3, CCCN(CCC)C(=O)[C@H](O)[C@H](O)C(O)CC(=O)C(=O)O; assay: as above; type: biochemical, Escherichia coli
T3 construct: hexa-His-tagged protein

Compound | coupled cleavage assay of purified enzyme; crystal soaking gave only the cleavag [1] | stoichiometry N [2] | Km [3] | Km [4] | kcat [4] | kcat/Km [4]
CCCN(CCC)C(=O)[C@H](O)[C@H](O)C(O)CC(=O)C(=O)O (stereo partly drawn) [DPAH, (5R,6R)-7-(dipropylamino)-4,5,6-trihydroxy-2,7-dioxoheptanoic acid] | confirmed that the E192N enzyme had the highest activity for DPAH |  |  |  |  | 
E192N variant of Escherichia coli N-acetylneuraminic acid lyase (enzyme) |  | 4 |  |  |  | 
N-Acetylneuraminic acid [Neu5Ac] |  |  | 3500 ± 500 µM |  |  | 
N-acetylneuraminic acid lyase (Escherichia coli K-12; E192F) |  |  |  | 300 ± 20 µM | 1.47 ± 0.0333 s⁻¹ | 5170 M⁻¹ s⁻¹
N-acetylneuraminic acid lyase (Escherichia coli K-12; E192M) |  |  |  | 200 ± 30 µM | 1.17 ± 0.05 s⁻¹ | 5330 M⁻¹ s⁻¹
N-acetylneuraminic acid lyase (Escherichia coli K-12; E192P) |  |  |  | 200 ± 20 µM | 0.817 ± 0.0167 s⁻¹ | 4330 M⁻¹ s⁻¹
N-acetylneuraminic acid lyase (Escherichia coli K-12; E192Q) |  |  |  | 700 ± 50 µM | 2.83 ± 0.0667 s⁻¹ | 4170 M⁻¹ s⁻¹
